This is an account of results in the DeepSol protein solubility set.

The data set is described as follows: soluble on expression in E. coli; label from the status in PepcDB or PDB records.
For “MSLKRLNLYIFGENNILDILIKNGSVFSGNNNEPESNNIGIKKSKIDFIGKESPESKKVIDAKDYIVTPGFIDIHTHSDISFLVDPEADSKLTQGVTFEFLGNCGMSFCAPLNSASKQTLSDRLSKYNSDVKIDWNDFTDWLNKIEKNIPSINVAAQLGHGVLRSYVMGMKAVSATPEDIEAMKNIVRSSIDQGVLGFSTGLWYAPGSYSHTEEIVEITKVVAEHDLLYSSHIRSESDDASGLFPAHAEAIEIGRRTGAKIQISHVKSVGPQFWGRGKELLEGMYKAREEGIDVAGDQYPYEWSSTPTSGCMFPRWSLEGGREKTLERLKDKNIREAIKSETINYINRFHGSAGCVLAEFSNDKKLEGLNLSEISEEFSCSPEEAAMRLYEISEGSFVLHSMEEQDVDTIGMSDIIAVASDGNSLRNTGPLSNGKPHPRSYGTNTRFIEDMVVNKKKVSISNAIYRMTSLPASRIGLKNRGEIKKGYFADINIFKPEELREKATYVDPHQYSTGMKWVLVNGKIALKDGKKIEGRFGKVVRSKEGEGHHHHHH”, the “soluble on expression in E. coli” value is given as “soluble”. The entry for “MSSRAVSLFSKCGSRISQTRGKAHFTFQPSTTLPAGLENLEKTKMNLMQSVNEAMRIAMETDDSAVLFGEDVAFGGVFRCSLDLQKKFGKDRVFNTPLCEQGIAGFGIGVAAAGATAIAEIQFGDYIFPAYDQLVNEAAKFRYRSGNQFDCGKLTVRTTWGAVGHGALYHSQSPEANFTHTPGLKLVVPRGPVQAKGLLLSCIRDPNPCIFFEPKILYRLASEDVPTGDYTIPLGQAETVRSGKDLTLVAWGTQVHVALEAAQLAKEKLNADVEVIDLQTIQPWDEDHVVESVQKTGRLIVTHEAPISSGFGAEIASTVQKRCFLNLESPIDRVAGFDTPFPHVHEPFYLPTVHRVFDAIKKSVNY” is “not soluble”; for “MGSSHHHHHHSSGLVPRGSHMSGSGSGSGTALTPSYLKDDDGRSLILRGFNTASSAKSAPDGMPQFTEADLAREYADMGTNFVRFLISWRSVEPAPGVYDQQYLDRVEDRVGWYAERGYKVMLDMHQDVYSGAITPEGNSGNGAGAIGNGAPAWATYMDGLPVEPQPRWELYYIQPGVMRAFDNFWNTTGKHPELVEHYAKAWRAVADRFADNDAVVAYDLMNEPFGGSLQGPAFEAGPLAAMYQRTTDAIRQVDQDTWVCVAPQAIGVNQGLPSGLTKIDDPRAGQQRIAYCPHLYPLPLDIGDGHEGLARTLTDVTIDAWRANTAHTARVLGDVPIILGEFGLDTTLPGARDYIERVYGTAREMGAGVSYWSSDPGPWGPYLPDGTQTLLVDTLNKPYPRAVAGTPTEWSSTSDRLQLTIEPDAAITAPTEIYLPEAGFPGDVHVEGADVVGWDRQSRLLTVRTPADSGNVTVTVTPAA” it is “soluble”. The result for “MSLQIKSIKAYHVVQPFVDGPYRMSKGRQADAFDAVIVAITADSGLTGWGEMAPLGNFYSAAFPAGARAGVPEIAPHLIGHDPRGLASIGRLMDTVFKGHPYIKSALDMACWDLAARAAGVPLVTMLGGRESDMAETYRVVTHGTLDQMAALAKRIIAEGCRRLQVKVGGNVHDDIERVTTVASAVPKGTVIFCDANAGWTPYQARQFADATRGIDYTFEQPCTTIEENMSVRRMLDKPMVLDESVTSLEEMLEIHRLGAADGLTLKISRLGGVTRTRQIRDVAVDLGFMITVEDTGGAEIDTAAMAHLSLSTPQERRLHAIAFHEWVTVRTAFNAPPVTGSHMGIPDGPGLGIDVDPSLLGKPFFEIGEGHHHHHH” reads “soluble”; that for “MTTLGTPVSLGRRTRTGRLELEFGVRHGQTALLRDLQKAPLMVVRPFRLPCGTLMVFIVNPTGGVLGGDHSEIHVEAGAGTRVLILTQSATRVQPSPGGEWATQELHFHVGVGARLEYYPERTLPFAGSRFRQHLRADLGAGAEFGLLETLASGRVQMGERLAWADYRSEVSVYAAQERVYLDRQHFRPGPHSRAPGVLGGNDYFASGVWVAGDSAAGRPAAESPTTAPGWASGLSAGGAVWARGVAATGPALDHAARQLREQVRHDLFGAAPLVLRRLEHHHHHH”, “not soluble”. The entry for “MVVAKPTAAVSIEDLIKKHSDVDPFLVKKWERIFSLFFDRNASHQVDWGDFYLVVKKVRDIYGAESVQTGFAKKSLAALWEGLCSIADADKDQLISIDEWIGLLKKTDAKTEPKWFKDYQNFMFKLFDVSCDGVMDLAEYTDGMSTYGFDQSECDAAFHKFSVDKKGQYVPQMKPETWNTYFHQLFYSTNKSDVGNHLFGIIDF” is “not soluble”. With “RDRSTIARIQFRLPDGSSFTNQFPSDAPLEEARQFAAQTVGNTYGNFSLATMFPRREFTREDYKRRLLDLELAPSASVVLLPAGRPATSIVHSSSGDILMID”, the “soluble on expression in E. coli” value is recorded as “soluble”. The entry for “MYALEIEQLRKTYAGGFEALKGISLQVKKGDFYALLGPNGAGKSTTIGIISSLVNKTSGKVTVFGYDLDSQLELAKQKLGLVPQEFNFNPFETVEQIVLQQAGYYGVPKALAKERAKKYLTQLDLWEKRSERARNLSGGMKRRLMIARALMHEPQLLILDEPTAGVDIELRRSMWEFLKQINAQGVTIILTTHYLEEAEMLCRHIGIIQRGELIENTTMKSLLGKLHVETFVLDVDGNAPIAPLQGVVKQQMVEGSLEIELEKSQGINHVFTQLTEQGVKVLSMRNKVNRLEELFVSIVNSGKRG” is “not soluble”; for “MTSGGNSIEPSVVAEAEKMLFCYQYDQTITISITSSADPCPLCNGGFLDEYVDPNPNPIPNLILPMSDPISSRFSFIPVMDFTNPSFLGESMEPQSTQQQLNAFDPNQLSDQANPLAGNHGDYFFGRGLEDLI” it is “not soluble”; for “SLSKEKISVQENKKMATIRDISLKCGVSVSTVSKVLNGYREIGEETSKAVMKAAEELGYVPNSYARQLKLKKSYNIGVLFDTLSVYGLKNEYFAHILAALRENASQGGYDITFIENNIGNRRMTYLEHCKYRNFDGICIVCADFTNPEVLDVVNSDFPVVTIDHSFNEAISILSDNSGGMRDLAQYIVSMGHKKIAYIHGNKSSVTHNRLVAFHQVLAEHDIVIPEYYMKEGEYRLAESAEEFTYELLNLSDRPTCILASDDYAALGVIKAIKRAGLRFPEDISVAGFDGISISQALEPKLTTVKQDTEKLGEQAAKKLICLMESPMTTPLEHIVLKAELIIGDSVKKLREG” it is “soluble”.

For “DIGCYTLGGFEPLNAIDTTICMGASIGMAHGFEMARGKEFAKKSVAVIGDSTFWHSGVTGLIDIVYNKGHSTVIILDNSITAMTGHQENPSTGKTLSGERTNQIDFEALGRSIGINRICVVDAYDLKALEETIKEEVNAEEPSLIITKRPCVLIKGAKFDFKDYKIDP”, the “soluble on expression in E. coli” value is “not soluble”.

As for “MITYYVRQLKTFSIMSLTLSNVILHKLVKNEQDELEVCLRNQTLENEEFTEALVSELHRVFNSKAGKGFGVFKTESEFGHWLSSVRKNETPFLEFSNNSAEKLKSELIKYPFAEEGILVIAEYQSLATEYLFVAVLPSNESMKVTEQLDISATDYLDIAKMDIAARIDLSTWETDSDSNRYLTFIKGRVGRKVSDFFLDFLQADVGMDTKVQNQVLMQAVEDFCADERLDQEEKQPYRKQVYDYCNGQLQAGEELTVKELASELPTSESGSNFYQFAEEQGYELEESFPVDRTALRKLTKFVGAGGGLSLNFDAMLLGERVFYDPETDTLTIKGTPPNLKDQLEHHHHHH”, the “soluble on expression in E. coli” value was “not soluble”. The entry for “MSEDELIIIENLKKIYKIKNVEFPALRGINLKIYKGEFLGIAGPSGSGKTTLLDMIGLLDSPTEGKIIIDKKDVTKFDEDKRAIFRRKNIGFVFQSYNLISYLTVLENVELALAAAGYPVSKRKAKAEEILSMIPGMLELKNKKPNELSAGQQQRVAIARALANDPKILIADEPTANLDSKTGEAIVELLRKLNEEKGVTIVMATHDPMMMKYVDRLVYIRDGLIEKEVIQK” is “soluble”; for “MKRYGNLYQEIINFENILIASRQAQKSKRFRDNVLDFNYHLETELIKLQKHLTDKTYQPGAYRTFRLTNPKSRLISAAPYRDRVVHHALCNIIVPIFERAFVADSYANRIGFGTHRALKKFTHSARNSPYVLQCDIRKYFPSIDHIILKELIRRKIKCPDTLWLIDTIIDNSNEQETVIDYFAGDDLLSPITRRKGLPIGNLTSQFFANIYLNGFDKIIKEELKISKYVRYVDDFALFSDDRELLADARLAIEAYLAELRLKIHPIKSQLFETKIGATFLGFRIFSHKIRVRNSNLHQARRRLKRLKTDYAQGKLELNQVTQSMRSWIAHLEHGDTWRLRKQIFTSLHFRRKLEHHHHHH” it is “soluble”.
